Where two headings read alike, the source gives them in different places.
Legend:
Assay in all cases: cell-based or functional assay
IL-4Rα [1] = target: IL-4Rα (UniProt P24394)
Type I IL-4R = Type I IL-4R (UniProt P24394)
IL-4Rα [2] = target: IL-4Rα (UniProt P24394); remark: listed apart in the source

UniProt P24394, sequence (P24394 26-825 limits assumed): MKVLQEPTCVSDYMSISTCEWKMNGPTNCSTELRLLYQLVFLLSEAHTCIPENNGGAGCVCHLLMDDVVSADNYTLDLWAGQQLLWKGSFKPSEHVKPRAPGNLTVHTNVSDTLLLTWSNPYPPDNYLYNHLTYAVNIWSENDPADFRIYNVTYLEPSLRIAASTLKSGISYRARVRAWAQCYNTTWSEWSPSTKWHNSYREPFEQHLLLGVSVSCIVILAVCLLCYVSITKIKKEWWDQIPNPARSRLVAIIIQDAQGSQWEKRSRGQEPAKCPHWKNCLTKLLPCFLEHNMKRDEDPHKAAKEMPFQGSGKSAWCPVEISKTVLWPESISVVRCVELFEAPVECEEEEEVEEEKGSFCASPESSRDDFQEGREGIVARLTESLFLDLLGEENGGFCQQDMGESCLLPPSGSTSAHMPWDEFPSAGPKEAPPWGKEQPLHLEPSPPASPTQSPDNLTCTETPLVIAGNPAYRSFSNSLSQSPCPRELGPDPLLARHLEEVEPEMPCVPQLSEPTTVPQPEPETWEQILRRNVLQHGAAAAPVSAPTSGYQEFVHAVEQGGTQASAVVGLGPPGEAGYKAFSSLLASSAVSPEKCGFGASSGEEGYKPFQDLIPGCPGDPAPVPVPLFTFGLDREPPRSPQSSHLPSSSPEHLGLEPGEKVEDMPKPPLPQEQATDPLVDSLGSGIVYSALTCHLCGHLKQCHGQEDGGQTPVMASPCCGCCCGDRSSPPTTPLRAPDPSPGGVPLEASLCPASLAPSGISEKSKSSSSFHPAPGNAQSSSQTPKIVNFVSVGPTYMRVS

Q: Which IC50 (ng/mL), cell count by trypan blue exclusion, KCCL871 cells (IL-4Rα [1]) does the source give for cpIL4-PE (from UniProt P11439 278-633) here?
A: 1.5 ng/mL

Q: And the IC50 (ng/mL), cell count by trypan blue exclusion, KCCOR891 cells (IL-4Rα [1])?
A: 9 ng/mL

Q: And the IC50 (ng/mL), cell count by trypan blue exclusion, KCCTCM901 cells (IL-4Rα [1])?
A: 0.7 ng/mL

Q: And the IC50 (ng/mL), cell count by trypan blue exclusion, YCUM862 cells (IL-4Rα [1])?
A: 0.6 ng/mL

Q: And the IC50 (ng/mL), cell count by trypan blue exclusion, YCUM911 cells (IL-4Rα [1])?
A: 4.5 ng/mL

Q: And the IC50 (ng/mL), cell count by trypan blue exclusion, YCUT891 cells (IL-4Rα [1])?
A: 8 ng/mL

Q: And the IC50, inhibition of [3H]-thymidine incorporation in HH cells (48 h) (Type I IL-4R)?
A: 362 ng/mL

B1: cpIL-4BAD fusion protein (protein)
chain: MDTTEKETFCRAATVLRQFYSHHEKDTRCLGATAQQFHRHKQLIRFLKRLDRNLWGLAGLNSCPVKEANQSTLENFLERLKTIMREKYSKCSSGGNGGHKCDITLQEIIKTLNSLTEQKTLCTELTVTDIFAASGSFQIPEFEPSEQEDSSSAERGLGPSPAGDGPSGSGKHHRQAPGLLWDASHQQEQPTSSSHHGGAGAVEIRSRHSAYPAGTEDDEGMGEEPSPFRGRSRAAPPNLWAAQRYGRELRRMSDEFVDSFKKGLPRPKSAGTATQMRQSSSWTRVFQSWWDRNLGRGSSAPSQ
Q: With B1 as the molecule, how does the IC50 (ng/mL), cell count by trypan blue exclusion, KCCL871 cells (IL-4Rα [2]) read?
A: 0.5 ng/mL

Q: What about the IC50 (ng/mL), cell count by trypan blue exclusion, KCCOR891 cells (IL-4Rα [2]) of the same molecule?
A: 0.15 ng/mL

Q: And the IC50 (ng/mL), cell count by trypan blue exclusion, KCCTCM901 cells (IL-4Rα [2])?
A: 1 ng/mL

Q: What about the IC50 (ng/mL), cell count by trypan blue exclusion, YCUM862 cells (IL-4Rα [2]) of the same molecule?
A: 1.1 ng/mL

Q: And the IC50 (ng/mL), cell count by trypan blue exclusion, YCUM911 cells (IL-4Rα [2])?
A: 0.2 ng/mL

Q: And the IC50 (ng/mL), cell count by trypan blue exclusion, YCUT891 cells (IL-4Rα [2])?
A: 11 ng/mL

Q: What about the IC50, 5-day cell viability assay on Daudi cells, with 100x excess IL-4 (IL-4Rα [2]) of the same molecule?
A: > 1000 ng/mL

Q: What about the IC50, 5-day cell viability assay on Daudi cells, without excess IL-4 (IL-4Rα [2]) of the same molecule?
A: 0.3 ng/mL

Q: And the IC50, 5-day cell viability assay on U 251 cells, with 100x excess IL-4 (IL-4Rα [2])?
A: > 1000 ng/mL

Q: What about the IC50, 5-day cell viability assay on U 251 cells, without excess IL-4 (IL-4Rα [2]) of the same molecule?
A: 0.3 ng/mL

Q: And the IC50, colony formation assay on U 251 cells (10 days) (IL-4Rα [2])?
A: 5 ng/mL

Q: And the IC50, killing of Daudi cells (viable cell count, trypan blue exclusion, 5 days) (IL-4Rα [2])?
A: 0.1 ng/mL

Q: What about the IC50, killing of U 251 cells (viable cell count, trypan blue exclusion, 5 days) (IL-4Rα [2]) of the same molecule?
A: 0.6 ng/mL

Source: patent publication US20160215035A1
